From patent publication US20250270304A1 (PHENOMIC AI, published 2025)
Where a chain is given by its changes, count along the chain named.

What was measured:
Experiment in all cases: ELISA, coated antigen, OD450
Inhibin A = biological target: T1, Inhibin A (Homo sapiens (Human), UniProt P05111 233-366; P08476 311-426)
T1 sequence 1: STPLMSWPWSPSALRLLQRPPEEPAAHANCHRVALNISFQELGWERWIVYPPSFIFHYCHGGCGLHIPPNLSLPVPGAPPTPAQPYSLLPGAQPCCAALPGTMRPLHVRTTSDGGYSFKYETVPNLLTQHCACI
T1 sequence 2: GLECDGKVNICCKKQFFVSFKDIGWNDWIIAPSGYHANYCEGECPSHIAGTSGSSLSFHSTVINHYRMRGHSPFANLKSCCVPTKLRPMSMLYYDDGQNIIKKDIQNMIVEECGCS
Experimental: (§1) Antibodies were re-expressed in 40 mL cultures of Expi293 cells and purified using protein G magnetic sepharose beads (Cytiva, Marlborough, MA) to provide larger quantities for secondary screening. Secondary screening included dose responses in both functional assays described above (SMAD nuclear localization and fibroblast activations assays) as well as in binding assays to the same antigens listed in Table 3. Plates were coated with 25 μL of 3 μg/mL antigen in 384-well Maxisorp plates overnight at 4° C. with agitation. The next day, the samples in the plates were blocked with 70 μL blocking buffer (PBS+1% BSA+0.1% Tween-20) for 2 hours at room temperature. Plates were then washed three times with 100 μL of wash buffer (PBS+0.1% Tween-20). Primary antibodies in Expi293 expression medium were diluted 1:3 in blocking buffer, 25 μL added per well, and the plates were incubated for an hour at room temperature with agitation. Plates were then washed three times and 25 μL of secondary antibody (goat anti-Human IgG, HRP conjugated; Jackson Immunoresearch) diluted 1:5000 in blocking buffer was added for 30 minutes at room temperature. The wells in the plates were washed six times with wash buffer and TMB substrate was added followed by 1 M H3PO4.

Latent Activin A = biological target: T2, Latent Activin A (human, UniProt P08476 21-426, limits assumed)
T2 construct: also called INHBA latent
T2 sequence: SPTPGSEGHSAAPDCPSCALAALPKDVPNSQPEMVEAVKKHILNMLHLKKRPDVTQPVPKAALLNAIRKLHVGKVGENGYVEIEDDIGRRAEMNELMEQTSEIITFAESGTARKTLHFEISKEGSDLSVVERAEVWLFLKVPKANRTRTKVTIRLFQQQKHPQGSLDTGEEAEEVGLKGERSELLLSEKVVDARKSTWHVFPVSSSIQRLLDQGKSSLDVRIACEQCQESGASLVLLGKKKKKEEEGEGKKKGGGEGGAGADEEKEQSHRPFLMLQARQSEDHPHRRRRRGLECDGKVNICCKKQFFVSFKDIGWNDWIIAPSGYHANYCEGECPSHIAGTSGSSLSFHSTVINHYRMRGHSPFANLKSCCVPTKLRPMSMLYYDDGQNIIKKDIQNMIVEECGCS
Experimental: as §1

Mature Activin A = biological target: T3, Mature Activin A (human, UniProt P08476 311-426)
T3 construct: also called active Activin A; INHBA mature
T3 sequence: T1 sequence 2
Experimental: as §1

Activin B = biological target: T4, Activin B (Homo sapiens (Human), UniProt P09529 293-407)
T4 construct: also called Mature Activin B; mature Activin B
T4 sequence: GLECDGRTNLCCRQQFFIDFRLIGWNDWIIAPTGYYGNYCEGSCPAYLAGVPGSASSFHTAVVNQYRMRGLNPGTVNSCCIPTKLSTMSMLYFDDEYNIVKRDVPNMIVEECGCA
Experimental: as §1

B1: AB430 (antibody, IgG1, V domains shown)
VH: EVQLVESGGGLVQPGGSLRLSCAASGFTLSNYPMSWVRQAPGKGLELVASTTSGSSTIYYPDSVKGRFTISRDNAKNSLYLQMNSLRAEDTAVYYCARGPDYYAPLRSYMDVWGKGTTVTVSS
VL: DIVMTQSPLSLPVTPGEPASISCRSSQSLQQSEGRTYLHWYLQKPGQSPQLLIYDASKRASGVPDRFSGSGSGTDFTLKISRVEAEDVGVYYCMQVLRTPITFGGGTKVEIK
Inhibin A
  fold-change of OD 450 over negative control (BSA): 0.86 fold
Latent Activin A
  fold-change of OD 450 over negative control (BSA): 7.44 fold
Mature Activin A
  fold-change of OD 450 over negative control (BSA): 7.58 fold
Activin B
  fold-change of OD 450 over negative control (BSA): 0.51 fold

B2: AB426 (antibody, IgG1, V domains shown)
VH: EVQLVESGGGLVQPGGSLRLSCAASGFTFSDHHMSWVRQAPGKGLELVASISPSGDFTYYPDSVKGRFTISRDNAKNSLYLQMNSLRAEDTAVYYCARDVSPVYYWGQGALVTVSS
VL: DIVMTQSPLSLPVTPGEPASISCRSSQSLLHWYLQKPGQSPQLLIYMGSQRAAGVPDRFSGSGSGTDFTLKISRVEAEDVGVYYCQSGVTFGGGTKVEIK
Inhibin A
  fold-change of OD 450 over negative control (BSA): 4.84 fold
Latent Activin A
  fold-change of OD 450 over negative control (BSA): 4.81 fold
Mature Activin A
  fold-change of OD 450 over negative control (BSA): 4.66 fold
Activin B
  fold-change of OD 450 over negative control (BSA): 0.51 fold

B3: AB431 (antibody, IgG1, V domains shown)
VH: EVQLVESGGGLVQPGGSLRLSCAASGFTSSNHWMSWVRQAPGKGLELVASIGPKGLGTYYPDSVKGRFTISRDNAKNSLYLQMNSLRAEDTAVYYCARDVRGWRALYYYYGMDVWGQGTTVTVSS
VL: DIVMTQSPLSLPVTPGEPASISCRSSQSLLHVTGYNYLHWYLQKPGQSPQLLIYGASSRAAGVPDRFSGSGSGTDFTLKISRVEAEDVGVYYCMQSTQWPHTFGGGTKVEIK
notes: also called mAb 431
Inhibin A
  fold-change of OD 450 over negative control (BSA): 1.13 fold
Latent Activin A
  fold-change of OD 450 over negative control (BSA): 1 fold
Mature Activin A
  fold-change of OD 450 over negative control (BSA): 1.04 fold
Activin B
  fold-change of OD 450 over negative control (BSA): 0.96 fold

B4: AB428 (antibody, IgG1, V domains shown)
VH: EVQLVESGGGLVQPGGSLRLSCAASGFTSSNHWMSWVRQAPGKGLELVASIGPKGLGTYYPDSVKGRFTISRDNAKNSLYLQMNSLRAEDTAVYYCASIRDYGDKKGGSWFDPWGQGTLVTVSS
VL: DIVMTQSPLSLPVTPGEPASISCRSSQSLLHSSGYNFLHWYLQKPGQSPQLLIYMATNRASGVPDRFSGSGSGTDFTLKISRVEAEDVGVYYCVQDLHTLPQFGGGTKVEIK
Inhibin A
  fold-change of OD 450 over negative control (BSA): 3.09 fold
Latent Activin A
  fold-change of OD 450 over negative control (BSA): 5.93 fold
Mature Activin A
  fold-change of OD 450 over negative control (BSA): 6.34 fold
Activin B
  fold-change of OD 450 over negative control (BSA): 0.72 fold

B5: AB439 (antibody, IgG1, V domains shown)
VH: EVQLVQSGAEVKKPGASVKVSCKASGYTYTGYRISWVRQAPGQGLEWMGWIDPKSGRTNYAQKLQGRGTMTTDPSTSTAYMELRSLRSDDTAVYYCAREVKQWLVPGRGVYWFDPWGQGTLVTVSS
VL: ESALTQPASVSGSPGQSITISCTGTNIGLRSVSWYQQHPGKAPKLMIYDTNIRSSGVSNRFSGSKSGNTASLTISGLQAEDEADYYCSSYTSSSTDVFGGGTKLTVL
Latent Activin A
  fold-change of OD 450 over negative control (BSA): 1.45 fold
Mature Activin A
  fold-change of OD 450 over negative control (BSA): 1.45 fold

B6: AB448 (antibody, IgG1, V domains shown)
VH: QVQLQESGPGLVKPSQTLSLTCTVSGLSLSNAKMGVNWIRQPPGKGLEWIGYVSTTGTTDYNPSLKSRVTMSVDTSKNQFSLKVNSVTAADTAVYYCARAGYPDVWGKGTTVTVSS
VL: DIQMTQSPSSVSASVGDRVTITCRASQNIGAALAWYQQKPGKAPKLLIYGASTREYGVPSRFSGSGSGTDFTLTISSLQPEDFANYYCQQYTAYPLTFGGGTKVEIK
Inhibin A
  fold-change of OD 450 over negative control (BSA): 0.77 fold
Latent Activin A
  fold-change of OD 450 over negative control (BSA): 2.74 fold
Mature Activin A
  fold-change of OD 450 over negative control (BSA): 3.34 fold
Activin B
  fold-change of OD 450 over negative control (BSA): 0.69 fold

B7: AB366 (antibody, IgG1, V domains shown)
VH: B6 VH with L27Y, S30T, N31D, K33R, M34I, V53I, S54N, T55P, T56S, T58R
VL: DIQMTQSPSSVSASVGDRVTITCRASQTISRSLAWYQQKPGKAPKLLIYDASSLAGGVPSRFSGSGSGTDFTLTISSLQPEDFANYYCQQYSSYPSLFGGGTKVEIK
Inhibin A
  fold-change of OD 450 over negative control (BSA): 0.72 fold
Latent Activin A
  fold-change of OD 450 over negative control (BSA): 10.3 fold
Mature Activin A
  fold-change of OD 450 over negative control (BSA): 13.1 fold
Activin B
  fold-change of OD 450 over negative control (BSA): 0.86 fold

B8: AB345 (antibody, IgG1, V domains shown)
VH: EVQLVESGGGLVQPGGSLRLSCAASGFTSSGYWMSWFRQAPGKGLELVASIGTAGVTYYPDSVKGRFTISRDNAKNSLYLQMNSLRAEDTAVYYCARGPHGPQQRLRFDPWGQGTLVTVSS
VL: DIVMTQSPLSLPVTPGEPASISCRSSQSLLSSYGYHNLHWYLQKPGQSPQLLIYMGSIRAPGVPDRFSGSGSGTDFTLKISRVEAEDVGVYYCMQGTQAPRTFGGGTKVEIK
Inhibin A
  fold-change of OD 450 over negative control (BSA): 3.43 fold
Latent Activin A
  fold-change of OD 450 over negative control (BSA): 8.12 fold
Mature Activin A
  fold-change of OD 450 over negative control (BSA): 9.47 fold
Activin B
  fold-change of OD 450 over negative control (BSA): 0.76 fold

B9: AB344 (antibody, IgG1, V domains shown)
VH: EVQLVESGGGLVQPGGSLRLSCAASGYTFSNYGMSWVRQAPGKGLELVASISKSGSSIYYPDSVKGRFTISRDNAKNSLYLQMNSLRAEDTAVYYCARLPRLAWNYYYGMDVWGQGTTVTVSS
VL: DIVMTQSPLSLPVTPGEPASISCRSSRSLVHGSGDNYLHWYLQKPGQSPQLLIYMASNRAPGVPDRFSGSGSGTDFTLKISRVEAEDVGVYYCVQTLQTPSTFGGGTKVEIK
Inhibin A
  fold-change of OD 450 over negative control (BSA): 1.18 fold
Latent Activin A
  fold-change of OD 450 over negative control (BSA): 2.35 fold
Mature Activin A
  fold-change of OD 450 over negative control (BSA): 3.18 fold
Activin B
  fold-change of OD 450 over negative control (BSA): 0.75 fold

B10: AB341 (antibody, IgG1, V domains shown)
VH: B9 VH
VL: B4 VL with S33N, G34E, Y35K, F37Y, M55D, T57S, N58K, L100P, P101F, Q102T
Inhibin A
  fold-change of OD 450 over negative control (BSA): 0.81 fold
Latent Activin A
  fold-change of OD 450 over negative control (BSA): 4.09 fold
Mature Activin A
  fold-change of OD 450 over negative control (BSA): 6.71 fold
Activin B
  fold-change of OD 450 over negative control (BSA): 0.98 fold

B11: AB330 (antibody, IgG1, V domains shown)
VH: QVQLVQSGAEVKKPGASVKVSCKVSGYPSPATISWVRQAPGKGLEWMGWMNPKSGYTNYAQKFQGRVTMTEDTSTDTAYMELSSLKSEDTAVYYCATLHGSGLAFDIWGQGTMVTVSS
VL: DIQMTQSPSSVSASVGDRVTITCRASQDIKSDLAWYQQKPGKAPKLLIYRASARESGVPSRFSGSGSGTDFTLTISSLQPEDFANYYCQQYRSFPWSFGGGTKVEIK
notes: also called mAb 330
Inhibin A
  fold-change of OD 450 over negative control (BSA): 0.97 fold
Latent Activin A
  fold-change of OD 450 over negative control (BSA): 0.75 fold
Activin B
  fold-change of OD 450 over negative control (BSA): 0.61 fold

B12: AB438 (antibody, IgG1, V domains shown)
VH: QVQLQESGPGLVKPSQTLSLTCTVSGVSLSNARLGVNWIRQPPGKGLEWIGYGSVTGSTDYNPSLKSRVTMSVDTSKNQFSLKVNSVTAADTAVYYCTTSYLVDTAMVTRWGQGTLVTVSS
VL: EIVMTQSPATLSLSPGERATLSCRASQSLGTNLAWYQQKPGQAPRLLIYGASSRPSGIPARFSGSGSGTDFTLTISSLEPEDFAVYYCQQYDTHPLSFGGGTKVEIK
Inhibin A
  fold-change of OD 450 over negative control (BSA): 0.23 fold
Latent Activin A
  fold-change of OD 450 over negative control (BSA): 2.34 fold
Mature Activin A
  fold-change of OD 450 over negative control (BSA): 2.83 fold
Activin B
  fold-change of OD 450 over negative control (BSA): 0.15 fold

B13: AB349 (antibody, IgG1, V domains shown)
VH: B12 VH
VL: EIVMTQSPATLSLSPGERATLSCRASQRIGSDLAWYQQKPGQAPRLLIYSASSRAPGIPARFSGSGSGTDFTLTISSLEPEDFAVYYCSTMAIPFGGGTKVEIK
Inhibin A
  fold-change of OD 450 over negative control (BSA): 0.22 fold
Latent Activin A
  fold-change of OD 450 over negative control (BSA): 4.34 fold
Mature Activin A
  fold-change of OD 450 over negative control (BSA): 5.14 fold
Activin B
  fold-change of OD 450 over negative control (BSA): 0.27 fold
